Here are results for 2 molecules from publication doi:10.1101/2020.01.02.893370 (bioRxiv, 2020).

The target of series [1] is sigma70 (RpoD);RNAP core enzyme wild type (alpha2 beta beta' omega) (Escherichia coli;Escherichia coli, UniProt P00579;P0A7Z4;P0A8V2;P0A8T7;P0A800 1-613;1-329;1-1342;1-1407;1-91, |). Nature of the series: DNase I footprinting.
Series [2] deals with E. coli RNA polymerase β′ subunit (E. coli, UniProt P0A8T7 1-1407). Nature of the series: cryo-EM structure.
E. coli RNA polymerase β′ subunit, sequence (P0A8T7 whole entry): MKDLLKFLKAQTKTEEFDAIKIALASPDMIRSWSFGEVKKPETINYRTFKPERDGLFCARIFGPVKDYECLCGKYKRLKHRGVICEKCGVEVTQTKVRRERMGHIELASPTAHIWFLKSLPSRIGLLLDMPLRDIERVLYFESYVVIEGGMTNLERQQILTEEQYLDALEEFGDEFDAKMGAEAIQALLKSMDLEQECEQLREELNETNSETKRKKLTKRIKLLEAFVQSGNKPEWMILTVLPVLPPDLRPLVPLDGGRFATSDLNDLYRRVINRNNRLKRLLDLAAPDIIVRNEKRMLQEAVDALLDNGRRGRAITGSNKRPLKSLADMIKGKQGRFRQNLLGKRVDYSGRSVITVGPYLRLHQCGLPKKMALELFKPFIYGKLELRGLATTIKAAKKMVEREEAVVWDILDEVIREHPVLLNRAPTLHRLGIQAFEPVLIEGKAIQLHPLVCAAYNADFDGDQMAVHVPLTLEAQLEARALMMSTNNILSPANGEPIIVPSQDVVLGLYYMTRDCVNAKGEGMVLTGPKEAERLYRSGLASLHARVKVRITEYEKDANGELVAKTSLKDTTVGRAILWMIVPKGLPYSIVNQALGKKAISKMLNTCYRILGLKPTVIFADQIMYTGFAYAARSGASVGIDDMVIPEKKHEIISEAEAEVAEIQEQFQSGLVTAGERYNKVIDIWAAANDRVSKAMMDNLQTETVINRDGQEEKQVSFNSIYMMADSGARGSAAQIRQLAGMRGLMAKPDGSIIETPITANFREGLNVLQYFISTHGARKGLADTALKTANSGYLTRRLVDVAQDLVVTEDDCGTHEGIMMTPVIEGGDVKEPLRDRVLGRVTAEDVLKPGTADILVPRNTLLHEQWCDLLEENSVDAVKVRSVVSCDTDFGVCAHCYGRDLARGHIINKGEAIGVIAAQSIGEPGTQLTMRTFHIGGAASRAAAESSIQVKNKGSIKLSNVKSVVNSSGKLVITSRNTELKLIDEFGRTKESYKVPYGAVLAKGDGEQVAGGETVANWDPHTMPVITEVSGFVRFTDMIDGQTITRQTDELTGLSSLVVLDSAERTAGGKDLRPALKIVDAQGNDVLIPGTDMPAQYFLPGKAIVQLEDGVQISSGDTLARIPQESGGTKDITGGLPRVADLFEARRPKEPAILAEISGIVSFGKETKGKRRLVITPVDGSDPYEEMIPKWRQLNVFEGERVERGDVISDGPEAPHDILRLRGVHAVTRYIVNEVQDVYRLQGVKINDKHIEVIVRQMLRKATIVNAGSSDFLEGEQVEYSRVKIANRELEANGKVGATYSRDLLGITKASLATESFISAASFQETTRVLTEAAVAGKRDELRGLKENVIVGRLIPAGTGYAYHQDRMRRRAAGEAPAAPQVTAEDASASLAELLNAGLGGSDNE

sigma70 (RpoD);RNAP core enzyme wild type (alpha2 beta beta' omega), sequence (P00579 whole entry, chain 1 of 4): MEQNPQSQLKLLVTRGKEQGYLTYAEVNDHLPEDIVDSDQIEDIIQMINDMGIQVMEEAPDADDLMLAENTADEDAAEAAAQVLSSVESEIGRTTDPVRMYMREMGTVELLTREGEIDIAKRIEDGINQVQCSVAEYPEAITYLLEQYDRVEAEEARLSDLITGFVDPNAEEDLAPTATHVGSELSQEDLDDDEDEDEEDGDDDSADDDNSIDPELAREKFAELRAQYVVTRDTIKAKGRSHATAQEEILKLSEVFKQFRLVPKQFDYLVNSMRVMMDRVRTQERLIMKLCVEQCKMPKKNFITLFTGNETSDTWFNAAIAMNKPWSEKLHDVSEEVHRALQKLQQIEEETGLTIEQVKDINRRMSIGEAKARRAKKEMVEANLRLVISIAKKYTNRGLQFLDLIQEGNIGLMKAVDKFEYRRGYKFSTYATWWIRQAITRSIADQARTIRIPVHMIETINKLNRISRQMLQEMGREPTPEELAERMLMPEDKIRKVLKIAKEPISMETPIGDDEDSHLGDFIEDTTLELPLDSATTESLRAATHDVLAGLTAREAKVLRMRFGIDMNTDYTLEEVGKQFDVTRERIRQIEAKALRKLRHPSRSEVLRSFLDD
sigma70 (RpoD);RNAP core enzyme wild type (alpha2 beta beta' omega), sequence (P0A7Z4 whole entry, chain 2 of 4): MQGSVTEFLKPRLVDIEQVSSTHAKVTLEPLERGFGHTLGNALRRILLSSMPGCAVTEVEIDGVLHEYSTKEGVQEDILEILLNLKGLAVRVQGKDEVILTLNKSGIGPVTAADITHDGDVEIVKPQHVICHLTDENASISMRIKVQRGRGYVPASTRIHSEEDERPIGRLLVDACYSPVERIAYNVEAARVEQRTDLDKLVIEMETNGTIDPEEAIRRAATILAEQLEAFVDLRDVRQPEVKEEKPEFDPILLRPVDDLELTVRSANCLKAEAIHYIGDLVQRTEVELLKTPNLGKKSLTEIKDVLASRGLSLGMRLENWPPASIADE
sigma70 (RpoD);RNAP core enzyme wild type (alpha2 beta beta' omega), sequence (P0A8V2 whole entry, chain 3 of 4): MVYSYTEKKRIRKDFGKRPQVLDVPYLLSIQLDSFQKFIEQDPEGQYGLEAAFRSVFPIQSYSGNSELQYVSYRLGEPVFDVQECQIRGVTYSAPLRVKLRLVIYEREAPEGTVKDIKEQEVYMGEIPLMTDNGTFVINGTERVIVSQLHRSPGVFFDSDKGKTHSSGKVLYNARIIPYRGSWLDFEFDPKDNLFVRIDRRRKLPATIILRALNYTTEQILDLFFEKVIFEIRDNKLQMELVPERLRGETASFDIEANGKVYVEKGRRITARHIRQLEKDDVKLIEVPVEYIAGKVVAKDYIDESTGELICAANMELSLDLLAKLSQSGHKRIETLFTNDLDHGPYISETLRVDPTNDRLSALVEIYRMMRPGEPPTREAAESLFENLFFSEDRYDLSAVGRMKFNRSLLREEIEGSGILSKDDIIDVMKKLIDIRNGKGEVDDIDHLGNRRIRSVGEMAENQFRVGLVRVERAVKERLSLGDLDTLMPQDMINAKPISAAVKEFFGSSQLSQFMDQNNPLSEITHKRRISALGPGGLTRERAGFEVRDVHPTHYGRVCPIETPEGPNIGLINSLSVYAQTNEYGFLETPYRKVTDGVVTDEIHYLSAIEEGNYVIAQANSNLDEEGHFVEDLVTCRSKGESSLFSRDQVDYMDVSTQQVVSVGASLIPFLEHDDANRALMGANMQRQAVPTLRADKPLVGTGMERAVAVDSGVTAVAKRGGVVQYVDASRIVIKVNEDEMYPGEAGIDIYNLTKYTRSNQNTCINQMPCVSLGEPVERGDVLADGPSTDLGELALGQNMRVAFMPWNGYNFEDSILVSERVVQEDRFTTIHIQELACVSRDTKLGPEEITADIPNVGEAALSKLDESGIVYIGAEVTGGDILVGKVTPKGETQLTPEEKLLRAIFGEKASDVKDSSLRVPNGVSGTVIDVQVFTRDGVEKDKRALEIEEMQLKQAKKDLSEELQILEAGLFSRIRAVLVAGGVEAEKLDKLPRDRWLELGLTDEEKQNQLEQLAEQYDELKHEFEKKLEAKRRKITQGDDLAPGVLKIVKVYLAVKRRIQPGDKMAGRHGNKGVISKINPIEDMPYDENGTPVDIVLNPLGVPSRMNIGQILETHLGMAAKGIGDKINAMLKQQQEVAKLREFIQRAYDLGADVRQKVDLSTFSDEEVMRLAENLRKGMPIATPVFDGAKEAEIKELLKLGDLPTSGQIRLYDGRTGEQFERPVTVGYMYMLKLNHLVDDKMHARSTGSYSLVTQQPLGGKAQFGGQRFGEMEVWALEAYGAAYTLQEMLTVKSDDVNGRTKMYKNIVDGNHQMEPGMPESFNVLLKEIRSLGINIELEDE
sigma70 (RpoD);RNAP core enzyme wild type (alpha2 beta beta' omega), sequence (P0A800 whole entry, chain 5 of 4): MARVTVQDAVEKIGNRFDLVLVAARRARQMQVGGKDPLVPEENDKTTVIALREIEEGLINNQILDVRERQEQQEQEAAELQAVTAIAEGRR

B1: lacUV5p (dsDNA)
DNA 1: CCCGCCGACAGGTTTCCCGACTGGAAAGCGGGCAGTGAGCGCAACGCAATTAATGTGAGTTAGCTCACTCATTAGGCACCCCAGGCTTTACACTTTATGCTTCCGGCTCGTATAATGTGTGGAATTGTGAGCGGATAACAATTTCACACAGGAAACAGCTATGACCATGGGCGCGG
DNA 2: CCGCGCCCATGGTCATAGCTGTTTCCTGTGTGAAATTGTTATCCGCTCACAATTCCACACATTATACGAGCCGGAAGCATAAAGTGTAAAGCCTGGGGTGCCTAATGAGTGAGCTAACTCACATTAATTGCGTTGCGCTCACTGCCCGCTTTCCAGTCGGGAAACCTGTCGGCGGG
With B1, the binding result in series [1] was “binds”.

B2: E. coli σ^28 factor (natural protein, UniProt P0AEM6 1-239, looked up)
chain: MNSLYTAEGVMDKHSLWQRYVPLVRHEALRLQVRLPASVELDDLLQAGGIGLLNAVERYDALQGTAFTTYAVQRIRGAMLDELRSRDWVPRSVRRNAREVAQAIGQLEQELGRNATETEVAERLGIDIADYRQMLLDTNNSQLFSYDEWREEHGDSIELVTDDHQRENPLQQLLDSNLRQRVMEAIETLPEREKLVLTLYYQEELNLKEIGAVLEVGESRVSQLHSQAIKRLRTKLGKL
For the molecule B2, the binding result in series [2] is listed as “binds”.
